The target of assay [1] is CXCR1 on CXCR1-transfected HEK293 cells (UniProt P25024). Kind of assay: cell-based or functional assay.
In assay [2] the target is CXCR2 on purified human neutrophils (human) (UniProt P25025). Kind of assay: cell-based or functional assay.

Drawing on patent US20120070405A1, this text covers CXCL8-induced chemotactic responses of CXCR1-transfected HEK293 cells (modified Boyden chamber), G31P, intracellular Ca^++ flux in human neutrophils induced by CXCL1 (100 ng/ml), G31P and intracellular Ca^++ flux in human neutrophils induced by CXCL5 (100 ng/ml), G31P for one substance.

Chain of UniProt P25025 (P25025 whole entry): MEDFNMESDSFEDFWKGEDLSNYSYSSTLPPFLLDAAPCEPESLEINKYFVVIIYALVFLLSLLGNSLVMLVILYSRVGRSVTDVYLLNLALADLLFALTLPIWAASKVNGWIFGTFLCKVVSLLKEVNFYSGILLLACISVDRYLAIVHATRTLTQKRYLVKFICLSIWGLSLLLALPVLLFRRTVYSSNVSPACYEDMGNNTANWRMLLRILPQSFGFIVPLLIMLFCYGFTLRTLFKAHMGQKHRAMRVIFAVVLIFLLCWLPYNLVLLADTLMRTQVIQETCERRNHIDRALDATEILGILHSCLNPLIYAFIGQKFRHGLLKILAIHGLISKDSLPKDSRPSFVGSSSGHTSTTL
Chain of UniProt P25024 (P25024 whole entry): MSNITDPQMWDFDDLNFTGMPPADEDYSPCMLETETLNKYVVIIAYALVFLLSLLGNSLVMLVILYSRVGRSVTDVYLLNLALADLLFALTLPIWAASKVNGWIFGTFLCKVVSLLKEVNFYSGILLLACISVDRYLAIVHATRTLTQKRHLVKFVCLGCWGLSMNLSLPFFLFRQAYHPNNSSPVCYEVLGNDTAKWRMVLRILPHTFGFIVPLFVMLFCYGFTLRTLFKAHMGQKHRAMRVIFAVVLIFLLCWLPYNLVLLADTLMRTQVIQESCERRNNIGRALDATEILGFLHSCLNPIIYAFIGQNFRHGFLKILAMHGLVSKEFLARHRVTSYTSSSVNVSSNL

With “human GS-CXCL8(3-72)K11R/G31P (from UniProt P10145 30-99) (ligand)”, in assay [1], the CXCL8-induced chemotactic responses of CXCR1-transfected HEK293 cells (modified Boyden chamber), G31P at 10 ng/ml came out at 80 % blocked. In assay [2], this substance displayed an intracellular Ca^++ flux in human neutrophils induced by CXCL1 (100 ng/ml), G31P at 10 ng/ml of less than 95 % reduced and an intracellular Ca^++ flux in human neutrophils induced by CXCL5 (100 ng/ml), G31P at 10 ng/ml of less than 95 % reduced.
